Measured values taken from the DeepSol protein solubility set.

test: soluble on expression in E. coli; label from the status in PepcDB or PDB records

Sequence	soluble on expression in E. coli
MNNKLVRSLKYNDVYGELYSYENSSALTVIFPGINYGHEKPLLYYARKAAAQNNIDILCINYKNKISWEDIGKQSIEDVAIEIKGIIKNVIEKKYDNIYFLGKSVGTEIAGCTSSKLNIDNIKFLYLTPIEETLKYIVDRKCIVVSGTKDEFFKSECINKIRENKNVKLMLFEGANHSLEIKDDIIRSLRILDNVAQLYLDFFK	not soluble
MGSDKIHHHHHHMKTARLIYNPTSGREQIRKSLAYILERLELAGYETSTHATTGEGSATEAARLAGERRHDLVIAAGGDGTIYEVVNGLAGLEKRPTLGLIPAGTTNDFARALNIPRDIEKACDILIEGHTKPVDVGKAGDHYFINIAAGGTLTELTYEVPSKLKTVVGQLAYYIKGLEKLPQISPTDVRIEYDGKLFEGEIMMFLVSNTNSVGGFERLAPNASLRDGMFDFIIVKKTSFPEFLHLAGLALRGEHIKHPKVLYVQANRIKVQAEKSMQLNFDGEYGGLLPAEFVNLYQHFQMLCPKD	not soluble
MIRIELPTLIAKLNAQSKLALEQAASLCIERQHPEVTLEYYLDVLLDNPLSDVRLVLKQAGLEVDQVKQAIASTYSREQVLDTYPAFSPLLVELLQEAWLLSSTELEQAELRSGAIFLAALTRADRYLSFKLISLFEGINRENLKKHFAMILSDSAETAVAKTDKNAANPLQAAAETPLGRFCTNVTEQARNGELDPVLSRENELNLMVDILCRRRKNNPIVVGEAGVGKSAMIEGLALRVVAGKVPTQLQNVELYSLDLGRLQAGASVKGEFEKRLKGVIDAIKQSPKPIILFIDEAHTLIGSGNQEGGSDAANLLKPALARGELSTVAATTWKEYKKYFEKDPALTRRFQLVKLDEPTIDQAVDILRGLNSVYEKAHNVLITDDALKAAAELSARYISGRQLPDKAIDVLDTACARIAINMTTPPKRLALLETLCHQRQLEIDMLERAQFLGQEVDSERLDVLRNQELADEAEKAALTQSWQQQKSLVESIIALRAELMELSQAQEQDPDHLLVVRTALQEQYQALDAIDHAERLMHPQVDADQIAEVIADWTGVPVDQMNTDELHKITHLTSILGQAIKGQETAIERIHRHLLTARADLRRPGRPKGAFLLVGPSGVGKTETVVQLAEQLYGGKQFLTTINMSEYQEKHTVSRLIGSPPGYVGYGEGGVLTEAIRKMPYSVVLLDEVEKAHPEVLNIFYQGFDKGEIADGEGRVIDCQNIVFFLTSNLGYQTIVDYADEPAKLDEALYPELAAFFKPALLARMEVIPYLPLGKEVLAQIVRGKLARLEKLFKTRYNAEVVIEESLIDEILSRATRSENGARMLEAIIEGQLLPPVSLALLNKLAERAPVERIRLAAEAGEFIGEVA	not soluble
MSSAFLADRRLIRVSGTGAEEFLNNLITADIENLPEGETRASALLTPQGKILFDFLIWRDGRDYLVETGAAEQDALLRRLTMYKLRAPVELKAETVEGIGVFWGNSVTEAGVRDGRFAKAGVDLRRVPGASASGEAAAYEALRVEHGIAESGRDYALQDAFPHDVLMDVNDGVSFKKGCFVGQEVVSRMKHRGTARRRVVTVSADGTLPASGTEITANGKPVGALGTVYGNRALAIVRTDRVADALAAGTPLLADNVAVSVALPAWSGLSFPAADPAARAED	not soluble
GPGSMSGSTQRAEQQRRIQQLHERLELYNIADRHTDPTSNSAGGVGFASAGGLETGGGDKAPTTKPSRAAPMSGSPNLKPTSAPTSNAFFFTSSLPRRAADAGAPSSTLGLQQGNGSGSRATAAPSATEIAEVSRASPTPQQQPQVQMPPPAPAPQLARNLAQEFFGSAASPTHASPTRAASRSSAMTSGAAASPVAPERPSVTAAYPESATEATAAATAAKAGSPPLAANVFDYYEDFKSDGSEGDEYEVEEVEECMEDEEDYVGDGEDTDEHARGKASLTLEDVLRRLHRACSGSVDHAAAASPLEQAMAAASASSPLARDPSLATATPAAAAATRVTLTAAAASPIGTTYPFLQQATEVYRQRHLYKATQEHQQHHSPFNTGYAWSTDEETSVTDTSTSEPTEGLGDASESRSASVSSSASAASKGHLTAANAAAAVQNSGLLAAALQPLADTAIATPTASDRASAEKVLPSSALCFDQLETAYRRLLILQQGAKYVSELAGPECFPRPLPRQEEARALAEQRDMVVKRDTEMRAAPPAGSSLEDLRQRESAAIERTLGLLREKFDAAMKSLKPVADREAAIEGKRRTLKQRELDIAKQREARLIVEREVAAAEKRLMERSEQLRKREEDYSARLQQHDHQQKAAQEQIGEVEQLSKQVSSWLAILEERDRRLARKEKRLQRVQADLLKRTEDIIVWKRATQRIKQIPPPPSPPRIS	not soluble
MRDLKIVNGDLSFIDYGILLVEGDLELAQSVFMILSIRLEEFKLDTSVGLESDNMFGKNYNEDYLKQDITEAILDQEPRINSIENIEIVRNNRQLNITVEMLSTLGDEVEVVIRA	not soluble
MLRQWWLRSVGSCSTVYRAHSGCSTSAAVKPKRAIPTDGLQLSDFIKESTKKQRQKAIIPSIEDTKEYLNPEDLQGNGRTVCYVTYGCQMNVSDMEIVRSIMTKYGFVESDKKENADIVLLMTCSIRDGAEKKVWNQLKLIRSNSVNKGQIVGVLGCMAERVRHDLLEKRNLVNIVAGPDSYRDLPRLVAVAAGGSNGINVQLSLDETYADVQPIRVDSASKTAFISIMRGCDNMCTYCVVPFTRGRERSRPIESIVEEVQRLRDQGYKQVTLLGQNVNSYRDMTSMDFSMAPSTSQEDRVPGFKTVYKPKSGGLTFTTLLEKVADAAPDIRFRFTSPHPKDFPMQLIELIASRPNLCKQLHLPAQSGDDETLERMERGYTRDLYLRLVDDIRHVLPSVSLTSDFIAGFCGETEQAHQNTLSLIRAVRYSFCFVFPYSMRGKTRAHHRLTDDVPEDVKARRHLDLTTVFREEALKLNQALIGSEQTVLLEGKSKRDASFSHGRIDGGVKAVFDNSKLCLEPGQYAKILITDANSQTLKAQLIGQSSI	not soluble
GMDMKTKLQTIIGMFQITAWDETSYFESDNGAKLTQAVITQSYQGVLQGHSEIRYLMSYQDNANATFVGFEHFTGSLGDKKGSFILQHKGLFAAGVASSEFELVERSATGDFVHLVGKGHFVSTENGQANYQITLQDS	soluble
MGSDKIHHHHHHMIQVLNLTTPETIKNYLHEALGKIEPFEQCILLDYPDHANIGDNLIWLGELLYLHNTRQSQITYNASVENFSVQEMDKCKSSCEIPIFLHGGGNLGDLWLKFQNFREYIISEYKENPIIIFPQSIYFQEEDNLIKAARIFNSHPNLTIFVRDNYSYQLATNYFSNCRIIKSPDAAFQLVNTPGIAAAYQNKSSILYHFRNDKELNLNQAGSPHTLDLPNLIVEDWASYKYESDSYKELPHNAVIQSFARVFHGWEQGKLFPDEWITRQIWKYFHPYTTAFSQSYNPESHRKAWSYMYQGVYQFKQHRLIITNRLHGHILSTLMGIPHIFLPNSYHKNEAFYEAWTYQIPFCRFVKDPEKIADTVRELIEISEIAKN	not soluble
MSYKFGKLAINKSELCLANVLQAGQSFRWIWDEKLNQYSTTMKIGQQEKYSVVILRQDEENEILEFVAVGDCGNQDALKTHLMKYFRLDVSLKHLFDNVWIPSDKAFAKLSPQGIRILAQEPWETLISFICSSNNNISRITRMCNSLCSNFGNLITTIDGVAYHSFPTSEELTSRATEAKLRELGFGYRAKYIIETARKLVNDKAEANITSDTTYLQSICKDAQYEDVREHLMSYNGVGPKVADCVCLMGLHMDGIVPVDVHVSRIAKRDYQISANKNHLKELRTKYNALPISRKKINLELDHIRLMLFKKWGSYAGWAQGVLFSKEIGGTSGSTTTGTIKKRKWDMIKETEAIVTKQMKLKVELSDLHIKEAKID	soluble
MSLAATALLEAGLARVLFYPTLLYTLFRGKVPGRAHRDWYHRIDPTVLLGALPLRSLTRQLVQDENVRGVITMNEEYETRFLCNSSQEWKRLGVEQLRLSTVDMTGIPTLDNLQKGVQFALKYQSLGQCVYVHCKAGRSRSATMVAAYLIQVHKWSPEEAVRAIAKIRSYIHIRPGQLDVLKEFHKQITARATKDGTFVISKTEGHHHHHH	soluble
MSLKQNQNSDESIDENMSVDNTETCMVDTVKATAIFWIDKAEAKHCKDSGLRTIKAKVFIHENGKVDFLSFTKKQSSGVEKYILHHLDKFQISKRMLEGGYIQTGEQFVQLRCMREKLQAMQEGHHHHHH	soluble
MENFAEIVGIGPAGVISITGGGGKTSLMFHLARQLAYSGKRVLTTTTTKILAPSVEESRTLLISQDPQVILRHAKAHPGPGVHVSAAAGHIPHTEKLQGFPREAIRTFEDSGEFDWVVVEADGAARKPLKAPAAHEPVIPGNSTIVVALAGLEVLGRPLGEEMVFRSELAGELMQIPQGETITVPALARLLAHPSGGFKGAPPQARRFIFLNKADTPELQEKGGEVALQLKEIAPSVAEAVIVGQLRQEITLHRVYPRGELEHHHHHH	soluble
MAQKKGRESDSVAEGLRPAEEGDVLELDECWTYVRERANKRWLWVALCRRTRQVVAFVIGDRSARTCARLWSRIPEEYRQGRSFSDFWKSYRPVFAGDPSHRQVGKSSGEMAHVERFFGRLRQKLARYVRRTRAASESERMLHLTTKLFVEWYNEAIT	not soluble
MHVVYPGSFDPLTNGHLDVIQRASRLFEKVTVAVLENPSKRGQYLFSAEERLAIIREATAHLANVEAATFSGLLVDFVRRVGAQAIVKGLRAVSDYEYELQMAHLNRQLYPGLETLFILAATRYSFVSSTMVKEIARYGGDVSKLVPPATLRALKAKLGQ	soluble
MGSDKIHHHHHHQAEPAPLASAGPAANDPLEGFNRASFKLGMGLDRALLAPITHGYMAVTPRVVRDRVSLVIYNMGEPNTVMNQVLQGKPRQAVRSSTRFVVNSTVGVAGLFDVAAKMGLPPRGADFGQTFGRWGAGPGAYIYVPLMGPLNVRDGVGRALDIVTDPVSLFVGGLDTDFGRARTAITVVDLRATTDSAYEALKDASDPYVTTRSAYAQYREAFVREATGESEALPDFDAPPSEPNTSSATPNP	not soluble
MSPAITRKRFIAGAVCPACSEQDKIQMWEEDGVPHRECVACGYADTLNAQGQSIPKELGTRVNQNAPKPANPKVQSVQFFPNPKLKKKPDA	not soluble
MALKLKLKMPSSSASNSPQPPPPESHSPEQPKLPKLKIKAPSKTPVSSTPDSSMALKRPQEEQSTGENPKKLKLSLSKTKENGRPKGLPRVRIKPTRIPGEGYDSEAPDLEDDPLIEQGIIIRFLNDSNLDFVHNAVDSGDLTGLNVKWVTKEKAIVNVNSILYSARLIDLPTVTEIFKTVDRKNVFKTLDICQILLVLHVVDPAKLNIDTDFEVPEEFLFNHPFYKYVKNNEIKKKRMVLKDGLLQPFQDVYRRFRPTKVDHRVILDIESKVDELIKLDNEADESHFELLDSKTAQQSRFGTSATPSAVNSPVAMRMEGPEVEPGRFSNVQDHENEEDDEEEDEEDYDDDDLQDDDMELHLEQELEKVLDGELSESEVTIPTSMAGILTNDVGNGISIMTNGEQSEDIDGDEQDDEEEEEEEEEDGDDEEEEEEEEEEENEEGDSESGKQHVKLLEEEIFELEKAVAHHQKNLSTASSKMLRMKFQNTYTSLKASLDSKKRDLAKLLDEQEQQQEQKQPKTTVDEKSQEAEHSVEAEAEIEAQVEADAEDGDEDEDIDQGDDMNQENNNNNGDSDIDEDNADDLDDLF	not soluble
MKQWREKSRQLAERGDLTPADWSNLELYCVNYSIYRKAVADLAARGFSIVNSQGGESRNPALSAKSDAERVMIKMASLLGFDPISRRKNPPETEEEDELDRLE	not soluble
MNFISLSIFSEHLKSLFPFFTPNPFLNANVAVNDDVSSPNSSVTANYGHGTRACYTHRMGRFLSPKKAFFRFSLIN	not soluble
